Test results: PMC8065156, “Specificity of AMPylation of the human chaperone BiP is mediated by TPR motifs of FICD” (Nature Communications, 2021)

Tests used:
BiP 19–654 [1] = biological target: T1, BiP 19–654 (human, UniProt P11021 19-654)
BiP 19–654 [2] = biological target: T1, BiP 19–654; remark: listed apart in the source
BiP 19–654 T229A T518A = biological target: T2, BiP 19–654 T229A T518A (human, UniProt P11021 19-654, T229A | T518A); test: SEC; 5 µM FICD incubated with 100 µM BiP in HKM buffer with 5 mM ATP for at least 2 h; Superdex 10/300 75 pg; conditions: both partners purified
T2 construct: BiP, human, residues 19-654 of NP_005338.1; source: E. coli Rosetta (DE3), purified (Ni-NTA, SEC)
T2 sequence (P11021 19-654 T229A/T518A): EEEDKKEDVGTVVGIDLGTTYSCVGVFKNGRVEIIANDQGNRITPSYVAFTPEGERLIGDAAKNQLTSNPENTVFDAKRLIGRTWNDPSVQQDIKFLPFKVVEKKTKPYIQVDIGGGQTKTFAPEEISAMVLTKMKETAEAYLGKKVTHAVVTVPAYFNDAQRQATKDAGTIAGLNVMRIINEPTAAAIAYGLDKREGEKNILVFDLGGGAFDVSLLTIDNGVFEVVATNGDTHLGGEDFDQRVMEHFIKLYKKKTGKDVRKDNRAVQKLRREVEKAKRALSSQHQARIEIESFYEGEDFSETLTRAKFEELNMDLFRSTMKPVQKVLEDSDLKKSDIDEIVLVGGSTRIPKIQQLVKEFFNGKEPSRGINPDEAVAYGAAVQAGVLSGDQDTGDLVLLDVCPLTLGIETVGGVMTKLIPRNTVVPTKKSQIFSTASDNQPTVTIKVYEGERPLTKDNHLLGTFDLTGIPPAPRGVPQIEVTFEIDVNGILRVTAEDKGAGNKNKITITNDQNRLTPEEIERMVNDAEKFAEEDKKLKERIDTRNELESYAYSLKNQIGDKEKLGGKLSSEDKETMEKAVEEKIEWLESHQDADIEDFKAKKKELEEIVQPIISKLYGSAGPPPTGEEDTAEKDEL

BiP 19–654 R197A = BiP 19–654 R197A (human, UniProt P11021 19-654, R197A); test: cell-based or functional assay
Chain of BiP 19–654 R197A (P11021 19-654 R197A): as the sequence (P11021 19-654 T229A/T518A) above, with R179A, A211T, A500T counted along it

BiP 19–654 D238A = BiP 19–654 D238A (human, UniProt P11021 19-654, D238A); test: cell-based or functional assay
Chain of BiP 19–654 D238A (P11021 19-654 D238A): as the sequence (P11021 19-654 T229A/T518A) above, with A211T, D220A, A500T counted along it

BiP 19–654 V241A = BiP 19–654 V241A (human, UniProt P11021 19-654, V241A); test: cell-based or functional assay
Chain of BiP 19–654 V241A (P11021 19-654 V241A): as the sequence (P11021 19-654 T229A/T518A) above, with A211T, V223A, A500T counted along it

BiP 19–654 V415A = BiP 19–654 V415A (human, UniProt P11021 19-654, V415A); test: cell-based or functional assay
Chain of BiP 19–654 V415A (P11021 19-654 V415A): as the sequence (P11021 19-654 T229A/T518A) above, with A211T, V397A, A500T counted along it

BiP 19–654 E217A = BiP 19–654 E217A (human, UniProt P11021 19-654, E217A); test: cell-based or functional assay
Chain of BiP 19–654 E217A (P11021 19-654 E217A): as the sequence (P11021 19-654 T229A/T518A) above, with E199A, A211T, A500T counted along it

BiP 19–654 [3] = biological target: T1, BiP 19–654; test: cell-based or functional assay
BiP 28–549 T229A = biological target: T3, BiP 28–549 T229A (human, UniProt P11021 28-549, T229A, T518 covalently linked through TReND-2 to C404 of FICD); test: crystal structure; complex covalently linked through TReND-2 (C404 of FICD to T518 of BiP); crystallised with 1 mM AMP-PNP, 1 mM MgCl2, 10% glycerol; 0.2 M NaCl, 0.1 M Na/K phosphate pH 6.2, 10% PEG 8000, 19 °C; conditions: both partners purified
T3 construct: BiP, human, residues 28-549 of NP_005338.1; also called complexed BiP; source: E. coli Rosetta (DE3), purified (Ni-NTA, SEC); not shown: His6, N-terminal, cleaved
T3 sequence (P11021 28-549 T229A): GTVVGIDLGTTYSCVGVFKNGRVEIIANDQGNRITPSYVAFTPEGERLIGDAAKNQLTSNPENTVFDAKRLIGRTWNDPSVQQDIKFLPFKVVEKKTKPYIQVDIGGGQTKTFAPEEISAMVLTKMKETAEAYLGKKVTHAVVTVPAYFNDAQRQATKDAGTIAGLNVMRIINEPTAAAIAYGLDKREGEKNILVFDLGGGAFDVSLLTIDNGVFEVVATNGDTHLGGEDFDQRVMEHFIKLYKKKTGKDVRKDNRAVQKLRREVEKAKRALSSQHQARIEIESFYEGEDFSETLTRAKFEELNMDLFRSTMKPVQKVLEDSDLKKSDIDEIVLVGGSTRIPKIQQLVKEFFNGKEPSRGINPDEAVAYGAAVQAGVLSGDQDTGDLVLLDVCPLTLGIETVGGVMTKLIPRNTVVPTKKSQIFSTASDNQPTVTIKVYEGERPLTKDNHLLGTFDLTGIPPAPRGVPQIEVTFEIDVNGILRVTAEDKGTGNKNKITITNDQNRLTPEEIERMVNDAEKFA

T1 sequence (P11021 19-654): as the sequence (P11021 19-654 T229A/T518A) above, with A211T, A500T counted along it

B1: FICD 102–458 L258D E105A (enzyme)
chain: GKLAARAALNQALEMKRQGKREKAQKLFMHALKMDPDFVDALTEFGIFSEEDKDIIQADYLYTRALTISPYHEKALVNRDRTLPLVEEIDQRYFSIIDSKVKKVMSIPKGNSALRRVMEETYYHHIYHTVAIEGNTLTLSEIRHILETRYAVPGKSDEEQNEVIGMHAAMKYINTTLVSRIGSVTISDVLEIHRRVLGYVDPVEAGRFRTTQVLVGHHIPPHPQDVEKQMQEFVQWLNSEEAMNLHPVEFAALAHYKLVYIHPFIDGNGRTSRLLMNLILMQAGYPPITIRKEQRSDYYHVLEAANEGDVRPFIRFIAKCTETTLDTLLFATTEYSVALPEAQPNHSGFKETLPVKP
BiP 19–654 [1]
  AMPylation of BiP 19–654 WT by the FICD 102–458 L258D mutant, 30 min, western blot with αAMP antibody, against FICD L258D: 80 % reduction

B2: FICD 102–458 L258D H318A (enzyme)
chain: GKLEARAALNQALEMKRQGKREKAQKLFMHALKMDPDFVDALTEFGIFSEEDKDIIQADYLYTRALTISPYHEKALVNRDRTLPLVEEIDQRYFSIIDSKVKKVMSIPKGNSALRRVMEETYYHHIYHTVAIEGNTLTLSEIRHILETRYAVPGKSDEEQNEVIGMHAAMKYINTTLVSRIGSVTISDVLEIHRRVLGYVDPVEAGRFRTTQVLVGAHIPPHPQDVEKQMQEFVQWLNSEEAMNLHPVEFAALAHYKLVYIHPFIDGNGRTSRLLMNLILMQAGYPPITIRKEQRSDYYHVLEAANEGDVRPFIRFIAKCTETTLDTLLFATTEYSVALPEAQPNHSGFKETLPVKP
BiP 19–654 [2]
  AMPylation of BiP 19–654 WT by the FICD 102–458 L258D Fic-domain mutant, 30 min, western blot with αAMP antibody, against FICD L258D: 45 % impaired

B3: FICD 102–458 L258D (enzyme, human, UniProt Q9BVA6 102-458, looked up)
chain: GKLEARAALNQALEMKRQGKREKAQKLFMHALKMDPDFVDALTEFGIFSEEDKDIIQADYLYTRALTISPYHEKALVNRDRTLPLVEEIDQRYFSIIDSKVKKVMSIPKGNSALRRVMEETYYHHIYHTVAIEGNTLTLSEIRHILETRYAVPGKSDEEQNEVIGMHAAMKYINTTLVSRIGSVTISDVLEIHRRVLGYVDPVEAGRFRTTQVLVGHHIPPHPQDVEKQMQEFVQWLNSEEAMNLHPVEFAALAHYKLVYIHPFIDGNGRTSRLLMNLILMQAGYPPITIRKEQRSDYYHVLEAANEGDVRPFIRFIAKCTETTLDTLLFATTEYSVALPEAQPNHSGFKETLPVKP
notes: FICD (HYPE), human, residues 102-458 of NP_009007.2; also called FICD L258D; monomeric FICD; source: E. coli Rosetta (DE3), purified (Ni-NTA, SEC)
BiP 19–654 T229A T518A
  binding result: binds
BiP 19–654 R197A
  AMPylation of the BiP 19–654 mutant by FICD 102–458 L258D, 30 min, western blot with αAMP antibody, against BiP WT: > 80 % decrease
BiP 19–654 D238A
  AMPylation of the BiP 19–654 mutant by FICD 102–458 L258D, 30 min, western blot with αAMP antibody, against BiP WT: > 80 % decrease
BiP 19–654 V241A
  AMPylation of the BiP 19–654 mutant by FICD 102–458 L258D, 30 min, western blot with αAMP antibody, against BiP WT: > 95 % decrease
BiP 19–654 V415A
  AMPylation of the BiP 19–654 mutant by FICD 102–458 L258D, 30 min, western blot with αAMP antibody, against BiP WT: 70 % decrease
BiP 19–654 E217A
  AMPylation of the BiP 19–654 mutant by FICD 102–458 L258D, 30 min, western blot with αAMP antibody, against BiP WT: > 80 % decrease

B4: FICD 102–458 L258D K121A (enzyme)
chain: GKLEARAALNQALEMKRQGAREKAQKLFMHALKMDPDFVDALTEFGIFSEEDKDIIQADYLYTRALTISPYHEKALVNRDRTLPLVEEIDQRYFSIIDSKVKKVMSIPKGNSALRRVMEETYYHHIYHTVAIEGNTLTLSEIRHILETRYAVPGKSDEEQNEVIGMHAAMKYINTTLVSRIGSVTISDVLEIHRRVLGYVDPVEAGRFRTTQVLVGHHIPPHPQDVEKQMQEFVQWLNSEEAMNLHPVEFAALAHYKLVYIHPFIDGNGRTSRLLMNLILMQAGYPPITIRKEQRSDYYHVLEAANEGDVRPFIRFIAKCTETTLDTLLFATTEYSVALPEAQPNHSGFKETLPVKP
BiP 19–654 [1]
  AMPylation of BiP 19–654 WT by the FICD 102–458 L258D mutant, 30 min, western blot with αAMP antibody, against FICD L258D: > 98 % reduction

B5: FICD 102–458 L258D E404A (enzyme)
chain: GKLEARAALNQALEMKRQGKREKAQKLFMHALKMDPDFVDALTEFGIFSEEDKDIIQADYLYTRALTISPYHEKALVNRDRTLPLVEEIDQRYFSIIDSKVKKVMSIPKGNSALRRVMEETYYHHIYHTVAIEGNTLTLSEIRHILETRYAVPGKSDEEQNEVIGMHAAMKYINTTLVSRIGSVTISDVLEIHRRVLGYVDPVEAGRFRTTQVLVGHHIPPHPQDVEKQMQEFVQWLNSEEAMNLHPVEFAALAHYKLVYIHPFIDGNGRTSRLLMNLILMQAGYPPITIRKEQRSDYYHVLAAANEGDVRPFIRFIAKCTETTLDTLLFATTEYSVALPEAQPNHSGFKETLPVKP
BiP 19–654 [2]
  AMPylation of BiP 19–654 WT by the FICD 102–458 L258D Fic-domain mutant, 30 min, western blot with αAMP antibody, against FICD L258D: 75 % impaired

B6: FICD 102–458 L258D H401A (enzyme)
chain: GKLEARAALNQALEMKRQGKREKAQKLFMHALKMDPDFVDALTEFGIFSEEDKDIIQADYLYTRALTISPYHEKALVNRDRTLPLVEEIDQRYFSIIDSKVKKVMSIPKGNSALRRVMEETYYHHIYHTVAIEGNTLTLSEIRHILETRYAVPGKSDEEQNEVIGMHAAMKYINTTLVSRIGSVTISDVLEIHRRVLGYVDPVEAGRFRTTQVLVGHHIPPHPQDVEKQMQEFVQWLNSEEAMNLHPVEFAALAHYKLVYIHPFIDGNGRTSRLLMNLILMQAGYPPITIRKEQRSDYYAVLEAANEGDVRPFIRFIAKCTETTLDTLLFATTEYSVALPEAQPNHSGFKETLPVKP
BiP 19–654 [2]
  AMPylation of BiP 19–654 WT by the FICD 102–458 L258D Fic-domain mutant, 30 min, western blot with αAMP antibody, against FICD L258D: 60 % impaired

B7: FICD 102–458 L258D K124A (enzyme)
chain: GKLEARAALNQALEMKRQGKREAAQKLFMHALKMDPDFVDALTEFGIFSEEDKDIIQADYLYTRALTISPYHEKALVNRDRTLPLVEEIDQRYFSIIDSKVKKVMSIPKGNSALRRVMEETYYHHIYHTVAIEGNTLTLSEIRHILETRYAVPGKSDEEQNEVIGMHAAMKYINTTLVSRIGSVTISDVLEIHRRVLGYVDPVEAGRFRTTQVLVGHHIPPHPQDVEKQMQEFVQWLNSEEAMNLHPVEFAALAHYKLVYIHPFIDGNGRTSRLLMNLILMQAGYPPITIRKEQRSDYYHVLEAANEGDVRPFIRFIAKCTETTLDTLLFATTEYSVALPEAQPNHSGFKETLPVKP
BiP 19–654 [1]
  AMPylation of BiP 19–654 WT by the FICD 102–458 L258D mutant, 30 min, western blot with αAMP antibody, against FICD L258D: > 98 % reduction

B8: FICD 102–458 L258D R396A (enzyme)
chain: GKLEARAALNQALEMKRQGKREKAQKLFMHALKMDPDFVDALTEFGIFSEEDKDIIQADYLYTRALTISPYHEKALVNRDRTLPLVEEIDQRYFSIIDSKVKKVMSIPKGNSALRRVMEETYYHHIYHTVAIEGNTLTLSEIRHILETRYAVPGKSDEEQNEVIGMHAAMKYINTTLVSRIGSVTISDVLEIHRRVLGYVDPVEAGRFRTTQVLVGHHIPPHPQDVEKQMQEFVQWLNSEEAMNLHPVEFAALAHYKLVYIHPFIDGNGRTSRLLMNLILMQAGYPPITIRKEQASDYYHVLEAANEGDVRPFIRFIAKCTETTLDTLLFATTEYSVALPEAQPNHSGFKETLPVKP
BiP 19–654 [2]
  AMPylation of BiP 19–654 WT by the FICD 102–458 L258D Fic-domain mutant, 30 min, western blot with αAMP antibody, against FICD L258D: 95 % decrease

B9: FICD 102–458 L258D K127A (enzyme)
chain: GKLEARAALNQALEMKRQGKREKAQALFMHALKMDPDFVDALTEFGIFSEEDKDIIQADYLYTRALTISPYHEKALVNRDRTLPLVEEIDQRYFSIIDSKVKKVMSIPKGNSALRRVMEETYYHHIYHTVAIEGNTLTLSEIRHILETRYAVPGKSDEEQNEVIGMHAAMKYINTTLVSRIGSVTISDVLEIHRRVLGYVDPVEAGRFRTTQVLVGHHIPPHPQDVEKQMQEFVQWLNSEEAMNLHPVEFAALAHYKLVYIHPFIDGNGRTSRLLMNLILMQAGYPPITIRKEQRSDYYHVLEAANEGDVRPFIRFIAKCTETTLDTLLFATTEYSVALPEAQPNHSGFKETLPVKP
BiP 19–654 [1]
  AMPylation of BiP 19–654 WT by the FICD 102–458 L258D mutant, 30 min, western blot with αAMP antibody, against FICD L258D: > 98 % reduction

B10: FICD 102–445 E234G E404C^TReND-2 (enzyme, human, UniProt Q9BVA6 102-445, looked up)
chain: GKLEARAALNQALEMKRQGKREKAQKLFMHALKMDPDFVDALTEFGIFSEEDKDIIQADYLYTRALTISPYHEKALVNRDRTLPLVEEIDQRYFSIIDSKVKKVMSIPKGNSALRRVMEETYYHHIYHTVAIGGNTLTLSEIRHILETRYAVPGKSLEEQNEVIGMHAAMKYINTTLVSRIGSVTISDVLEIHRRVLGYVDPVEAGRFRTTQVLVGHHIPPHPQDVEKQMQEFVQWLNSEEAMNLHPVEFAALAHYKLVYIHPFIDGNGRTSRLLMNLILMQAGYPPITIRKEQRSDYYHVLCAANEGDVRPFIRFIAKCTETTLDTLLFATTEYSVALPEAQP
modifications: TReND-2 (thiol-reactive nucleotide derivative) on C404
BiP 19–654 [3]
  rate of covalent ternary complex formation (SDS-PAGE, densitometry) with 0.5 mM ATP against 0.5 mM ADP: ~15 fold faster
  rate of covalent ternary complex formation (SDS-PAGE, densitometry) without nucleotide against 0.5 mM ATP: 173 fold slower

B11: FICD 102–445 T168A T183A E234G L258D E404C^TReND-2 (enzyme, human, UniProt Q9BVA6 102-445, looked up)
chain: GKLEARAALNQALEMKRQGKREKAQKLFMHALKMDPDFVDALTEFGIFSEEDKDIIQADYLYTRALAISPYHEKALVNRDRALPLVEEIDQRYFSIIDSKVKKVMSIPKGNSALRRVMEETYYHHIYHTVAIGGNTLTLSEIRHILETRYAVPGKSDEEQNEVIGMHAAMKYINTTLVSRIGSVTISDVLEIHRRVLGYVDPVEAGRFRTTQVLVGHHIPPHPQDVEKQMQEFVQWLNSEEAMNLHPVEFAALAHYKLVYIHPFIDGNGRTSRLLMNLILMQAGYPPITIRKEQRSDYYHVLCAANEGDVRPFIRFIAKCTETTLDTLLFATTEYSVALPEAQP
modifications: TReND-2 (thiol-reactive nucleotide derivative) on C404, covalently linked to T518 of BiP
notes: FICD (HYPE), human, residues 102-445 of NP_009007.2; also called FICD^TReND-2; HYPE; source: E. coli Rosetta (DE3), purified (Ni-NTA, SEC)
BiP 28–549 T229A
  binding result: binds
